According to patent publication US20190117751A1 (SAPPORO MEDICAL UNIVERSITY, published 2019):

Tests used:
[1] = biological target: T1, HLA-A24 molecule on the cell surface (HLA-A*2402) (human); experiment: HLA-A24 stabilisation assay on T2-A24 cells, flow cytometry with C7709A2
T1 construct: also called HLA-A24 antigen

[2] = biological target: T1, HLA-A24 molecule on the cell surface …; experiment: not clear: FIG. 7 has no binding assay panel

**Q.** Does RYGNVSHF (Synthetic peptide; also called RF8) [SUV39H2-derived natural antigen peptide of SEQ ID No: 2 (RYGNVSHF)] bind [1]?
**A.** binds

**Q.** Does IFQGNVHNF (Synthetic peptide) [SNRNP40-derived natural peptide of SEQ ID No: 4 (IFQGNVHNF)] bind [2]?
**A.** binds

**Q.** Does HWNDTRPAHF (also called HF10) [PVT1-derived natural antigen peptide of SEQ ID No: 1 (HWNDTRPAHF)] bind [1]?
**A.** binds
